# Measurements taken from patent US20120225828A1 (PALATIN TECHNOLOGIES, published 2012).
# Bridge positions count the residues as written; N and C are the ends. Square brackets hold non-standard residues; d marks the D form. dPhe(3-Cl) = N[C@H](Cc1cccc(Cl)c1)C(=O)O; dPhe(4-Cl) = N[C@H](Cc1ccc(Cl)cc1)C(=O)O; dPhe(4-Me) = Cc1ccc(C[C@@H](N)C(=O)O)cc1; dPhe(2-Cl) = N[C@H](Cc1ccccc1Cl)C(=O)O; dPhe(4-F) = N[C@H](Cc1ccc(F)cc1)C(=O)O; 1Nal = N[C@@H](Cc1cccc2ccccc12)C(=O)O; 2Nal = N[C@@H](Cc1ccc2ccccc2c1)C(=O)O; d1Nal = N[C@H](Cc1cccc2ccccc12)C(=O)O; d2Nal = N[C@H](Cc1ccc2ccccc2c1)C(=O)O; dPhe(2-F) = N[C@H](Cc1ccccc1F)C(=O)O; Cit = NC(=O)NCCC[C@H](N)C(=O)O; Nle = CCCC[C@H](N)C(=O)O; Orn = NCCC[C@H](N)C(=O)O; Dab = NCC[C@H](N)C(=O)O; Dap = NC[C@H](N)C(=O)O
# Target: human melanocortin-1 receptor hMCR-1 expressed by the human melanoma cell line HBL (human, UniProt Q01726 1-317)
# Sequence (Q01726 whole entry): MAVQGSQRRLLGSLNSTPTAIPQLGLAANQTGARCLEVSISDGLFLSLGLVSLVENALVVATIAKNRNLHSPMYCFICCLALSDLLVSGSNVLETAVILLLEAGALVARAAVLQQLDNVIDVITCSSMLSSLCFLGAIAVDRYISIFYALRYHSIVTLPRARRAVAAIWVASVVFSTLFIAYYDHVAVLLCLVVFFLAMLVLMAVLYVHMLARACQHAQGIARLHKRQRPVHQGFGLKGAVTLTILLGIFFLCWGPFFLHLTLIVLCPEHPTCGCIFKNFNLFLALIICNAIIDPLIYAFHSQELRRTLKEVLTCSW
# Assay: cell-based or functional assay
Binder,MC-1 Emax (average; cAMP HBL) [%],MC-1 EC50 (average; cAMP HBL) [nM]
Ac-[Nle]E[Cit][dF]R[Dab]W-NH2 (lactam 2-6) [Ac-Nle-cyclo(Glu-Cit-D-Phe-Arg-Dab)-Trp-NH2 (SEQ ID NO: 54)],97,–
Ac-[Nle]EH[dF]R[Dab]K-NH2 (lactam 2-6; SMILES CCCC[C@H](NC(C)=O)C(=O)N[C@H]1CCC(=O)NCC[C@@H](C(=O)N[C@@H](CCCCN)C(N)=O)NC(=O)[C@H](CCCNC(=N)N)NC(=O)[C@@H](Cc2ccccc2)NC(=O)[C@H](Cc2c[nH]cn2)NC1=O) [Ac-Nle-cyclo(Glu-His-D-Phe-Arg-Dab)-Lys-NH2 (SEQ ID NO: 55)],91,0.175
Ac-[Nle]EK[dF]R[Dab]W-NH2 (lactam 2-6) [Ac-Nle-cyclo(Glu-Lys-D-Phe-Arg-Dab)-Trp-NH2 (SEQ ID NO: 56)],108,–
Ac-[Nle]E[Dab][dF]R[Dab]W-NH2 (lactam 2-6) [Ac-Nle-cyclo(Glu-Dab-D-Phe-Arg-Dab)-Trp-NH2 (SEQ ID NO: 57)],108,–
Ac-[Nle]E[Orn][dF]R[Dab]W-NH2 (lactam 2-6) [Ac-Nle-cyclo(Glu-Orn-D-Phe-Arg-Dab)-Trp-NH2 (SEQ ID NO: 58)],109,–
Ac-[Nle]E[Orn][dF]R[Dab]-NH2 (lactam 2-6; SMILES CCCC[C@H](NC(C)=O)C(=O)N[C@H]1CCC(=O)NCC[C@@H](C(N)=O)NC(=O)[C@H](CCCNC(=N)N)NC(=O)[C@@H](Cc2ccccc2)NC(=O)[C@H](CCCN)NC1=O) [Ac-Nle-cyclo(Glu-Orn-D-Phe-Arg-Dab)-NH2],102,0.5
Ac-[Nle]E[Orn][dPhe(2-Cl)]R[Dab]-NH2 (lactam 2-6; SMILES CCCC[C@H](NC(C)=O)C(=O)N[C@H]1CCC(=O)NCC[C@@H](C(N)=O)NC(=O)[C@H](CCCNC(=N)N)NC(=O)[C@@H](Cc2ccccc2Cl)NC(=O)[C@H](CCCN)NC1=O) [Ac-Nle-cyclo(Glu-Orn-D-Phe(2-Cl)-Arg-Dab)-NH2],88,1
Ac-[Nle]E[Orn][dPhe(3-Cl)]R[Dab]-NH2 (lactam 2-6; SMILES CCCC[C@H](NC(C)=O)C(=O)N[C@H]1CCC(=O)NCC[C@@H](C(N)=O)NC(=O)[C@H](CCCNC(=N)N)NC(=O)[C@@H](Cc2cccc(Cl)c2)NC(=O)[C@H](CCCN)NC1=O) [Ac-Nle-cyclo(Glu-Orn-D-Phe(3-Cl)-Arg-Dab)-NH2],86,2
Ac-[Nle]E[Orn][dPhe(4-Cl)]R[Dab]-NH2 (lactam 2-6; SMILES CCCC[C@H](NC(C)=O)C(=O)N[C@H]1CCC(=O)NCC[C@@H](C(N)=O)NC(=O)[C@H](CCCNC(=N)N)NC(=O)[C@@H](Cc2ccc(Cl)cc2)NC(=O)[C@H](CCCN)NC1=O) [Ac-Nle-cyclo(Glu-Orn-D-Phe(4-Cl)-Arg-Dab)-NH2],100,0.1
Ac-[Nle]E[Orn][dPhe(2-F)]R[Dab]-NH2 (lactam 2-6; SMILES CCCC[C@H](NC(C)=O)C(=O)N[C@H]1CCC(=O)NCC[C@@H](C(N)=O)NC(=O)[C@H](CCCNC(=N)N)NC(=O)[C@@H](Cc2ccccc2F)NC(=O)[C@H](CCCN)NC1=O) [Ac-Nle-cyclo(Glu-Orn-D-Phe(2-F)-Arg-Dab)-NH2],95,0.8
Ac-[Nle]EH[dF]R[Orn]W-NH2 (lactam 2-6) [Ac-Nle-cyclo(Glu-His-D-Phe-Arg-Orn)-Trp-NH2],91,–
Ac-[Nle]E[Orn][dPhe(4-F)]R[Dab]-NH2 (lactam 2-6; SMILES CCCC[C@H](NC(C)=O)C(=O)N[C@H]1CCC(=O)NCC[C@@H](C(N)=O)NC(=O)[C@H](CCCNC(=N)N)NC(=O)[C@@H](Cc2ccc(F)cc2)NC(=O)[C@H](CCCN)NC1=O) [Ac-Nle-cyclo(Glu-Orn-D-Phe(4-F)-Arg-Dab)-NH2],102,1
"Ac-[Nle]E[Orn][dPhe(3,4-F)]R[Dab]-NH2 (lactam 2-6) [Ac-Nle-cyclo(Glu-Orn-D-Phe(3,4-F)-Arg-Dab)-NH2]",97,1
Ac-[Nle]E[Orn][dPhe(4-Me)]R[Dab]-NH2 (lactam 2-6; SMILES CCCC[C@H](NC(C)=O)C(=O)N[C@H]1CCC(=O)NCC[C@@H](C(N)=O)NC(=O)[C@H](CCCNC(=N)N)NC(=O)[C@@H](Cc2ccc(C)cc2)NC(=O)[C@H](CCCN)NC1=O) [Ac-Nle-cyclo(Glu-Orn-D-Phe(4-Me)-Arg-Dab)-NH2],96,0.076
Ac-[Nle]E[Orn][dPhe(4-OMe)]R[Dab]-NH2 (lactam 2-6) [Ac-Nle-cyclo(Glu-Orn-D-Phe(4-OMe)-Arg-Dab)-NH2],99,0.12
Ac-[Nle]EP[dF]R[Dab]-NH2 (lactam 2-6) [Ac-Nle-cyclo(Glu-Pro-D-Phe-Arg-Dab)-NH2],102,–
Ac-[Nle]EP[dF]R[Dab]W-NH2 (lactam 2-6; SMILES CCCC[C@H](NC(C)=O)C(=O)N[C@H]1CCC(=O)NCC[C@@H](C(=O)N[C@@H](Cc2c[nH]c3ccccc23)C(N)=O)NC(=O)[C@H](CCCNC(=N)N)NC(=O)[C@@H](Cc2ccccc2)NC(=O)[C@@H]2CCCN2C1=O) [Ac-Nle-cyclo(Glu-Pro-D-Phe-Arg-Dab)-Trp-NH2],97,0.18

Binder,MC-1 Emax (average; cAMP HBL) [%],MC-1 EC50 (average; cAMP HBL) [nM]
Ac-[Nle]EH[dF]R[Dab][dW]-NH2 (lactam 2-6) [Ac-Nle-cyclo(Glu-His-D-Phe-Arg-Dab)-D-Trp-NH2],93,–
Ac-[Nle]EH[dF]R[Dab][d1Nal]-NH2 (lactam 2-6) [Ac-Nle-cyclo(Glu-His-D-Phe-Arg-Dab)-D-Nal 1-NH2],73,–
Ac-[Nle]EH[dF]R[Dab][2Nal]-NH2 (lactam 2-6) [Ac-Nle-cyclo(Glu-His-D-Phe-Arg-Dab)-Nal 2-NH2],83,–
Ac-[Nle]EH[dF]R[Dab][d2Nal]-NH2 (lactam 2-6) [Ac-Nle-cyclo(Glu-His-D-Phe-Arg-Dab)-Nal 2-NH2 (SEQ ID NO: 14)],69,–
Ac-[dF]EH[dF]R[Dab]W-NH2 (lactam 2-6) [Ac-D-Phe-cyclo(Glu-His-D-Phe-Arg-Dab)-Trp-NH2],75,–
Ac-[Nle]EH[dF]R[Dab]W-NH2 (lactam 2-6) [Ac-Nle-cyclo(Glu-His-D-Phe-Arg-Dab)-Trp-NH2],95,–
Ac-[Nle]EH[dF]R[Dab]A-NH2 (lactam 2-6; SMILES CCCC[C@H](NC(C)=O)C(=O)N[C@H]1CCC(=O)NCC[C@@H](C(=O)N[C@@H](C)C(N)=O)NC(=O)[C@H](CCCNC(=N)N)NC(=O)[C@@H](Cc2ccccc2)NC(=O)[C@H](Cc2c[nH]cn2)NC1=O) [Ac-Nle-cyclo(Glu-His-D-Phe-Arg-Dab)-Ala-NH2],97,0.008
Ac-[Nle]EH[dF]R[Dap]W-OH (lactam 2-6) [Ac-Nle-cyclo(Glu-His-D-Phe-Arg-Dap)-Trp-OH],81,0.107
Ac-[Nle][Dab]H[dF]R[Dab]W-NH2 (linker 2-6 via C(:O)‑(CH2)2‑C(:O)) [Ac-Nle-cyclo(Dab-His-D-Phe-Arg-Dab)-Trp-NH2 with bridge C(═O)-(CH2)2-C(═O)],92,–
Ac-[Nle][Dap]H[dF]R[Dap]W-NH2 (linker 2-6 via C(:O)‑(CH2)2‑C(:O)) [Ac-Nle-cyclo(Dap-His-D-Phe-Arg-Dap)-Trp-NH2 with bridge C(═O)-(CH2)2-C(═O)],70,0.007
Ac-[Nle][Dab]H[dF]R[Dap]W-NH2 (linker 2-6 via C(:O)‑(CH2)2‑C(:O)) [Ac-Nle-cyclo(Dab-His-D-Phe-Arg-Dap)-Trp-NH2 with bridge C(═O)-(CH2)2-C(═O)],78,0.006
Ac-[Nle]EH[dF]R[Dap]W-NH2 (lactam 2-6) [Ac-Nle-cyclo(Glu-His-D-Phe-Arg-Dap)-Trp-NH2],91,–
Ac-[Nle]EH[dF]R[Dab][1Nal]-NH2 (lactam 2-6) [Ac-Nle-cyclo(Glu-His-D-Phe-Arg-Dab)-Nal 1-NH2],72,–
Ac-[Nle]EH[dF]R[Dab]W-OH (lactam 2-6; SMILES CCCC[C@H](NC(C)=O)C(=O)N[C@H]1CCC(=O)NCC[C@@H](C(=O)N[C@@H](Cc2c[nH]c3ccccc23)C(=O)O)NC(=O)[C@H](CCCNC(=N)N)NC(=O)[C@@H](Cc2ccccc2)NC(=O)[C@H](Cc2c[nH]cn2)NC1=O) [Ac-Nle-cyclo(Glu-His-D-Phe-Arg-Dab)-Trp-OH],79,–
Ac-[Nle]EH[dF]R[Dab]-NH2 (lactam 2-6; SMILES CCCC[C@H](NC(C)=O)C(=O)N[C@H]1CCC(=O)NCC[C@@H](C(N)=O)NC(=O)[C@H](CCCNC(=N)N)NC(=O)[C@@H](Cc2ccccc2)NC(=O)[C@H](Cc2c[nH]cn2)NC1=O) [Ac-Nle-cyclo(Glu-His-D-Phe-Arg-Dab)-NH2],85,0.32
Ac-[Nle]EH[dF]A[Dab]-NH2 (lactam 2-6; SMILES CCCC[C@H](NC(C)=O)C(=O)N[C@H]1CCC(=O)NCC[C@@H](C(N)=O)NC(=O)[C@H](C)NC(=O)[C@@H](Cc2ccccc2)NC(=O)[C@H](Cc2c[nH]cn2)NC1=O) [Ac-Nle-cyclo(Glu-His-D-Phe-Ala-Dab)-NH2],73,44
Ac-[Nle]EH[dF]G[Dab]W-NH2 (lactam 2-6; SMILES CCCC[C@H](NC(C)=O)C(=O)N[C@H]1CCC(=O)NCC[C@@H](C(=O)N[C@@H](Cc2c[nH]c3ccccc23)C(N)=O)NC(=O)CNC(=O)[C@@H](Cc2ccccc2)NC(=O)[C@H](Cc2c[nH]cn2)NC1=O) [Ac-Nle-cyclo(Glu-His-D-Phe-Gly-Dab)-Trp-NH2],59,4
